From patent US20050119186A1, “Potent peptide inhibitors and methods of use” (priority 2003, published 2005)
Read-outs that look alike come from different tables or passages of the source. Positions of bridges follow the written chain, without caps; N, C: chain ends. Residues, ends and D or L forms follow the SMILES beside them. No end group written: not given here.

Tests used:
[1] = biological target: T1, ICAM-1/LFA-1 (Homo sapiens, UniProt P05362); assay: cellular aggregation blocking assay (LFA-1/ICAM-1 dependent cell aggregation); format: cell-based
T1 construct: endogenous in cells
From the text: The inhibitory compound tested was a cyclic peptide containing nine amino acids that bind to ICAM-1, thereby inhibiting LFA-1/ICAM-1 binding. Using alanine replacement and homologous amino acid substitutions, we identified residues strategic to the antagonist activity were identified. A small set of such derived peptides was used as a training set for the inverse-QSAR. The activity or potency of the peptides is associated with an IC50 value, which measures the concentration that leads to half-maximal inhibition of receptor to ligand. Table 1, below, lists the amino acid sequence of sixteen such derived peptides with their IC50 values (given in μM), determined using a cellular aggregation blocking assay (J. Shannon, D. C. Brown, M. Silva, R. S. Larson, A cyclic peptide inhibits LFA-1/ICAM-1 mediated cell aggregation, J. Pept. Res. (2001) 1-14, L. Sillerud, E. Burks, D. C. Brown, R. S. Larson, NMR-derived solution model of potent ICAM-1 inhibitory peptide, J. Pept. 62 (2003) 97-116).
In brief, the aggregation of a cell line dependent on LFA-1 binding to ICAM-1 was used to measure the inhibitory capacity of each peptide. Inhibitory peptides and cells were seeded in flat-bottomed microtiter plates and allowed to aggregate. The number of aggregates and total number of free (single) cells were counted using inverted phase microscopy. The percent aggregation, P, was determined as P=100(1−F/I) (1) where F is the final number of free cells and I is the initial number of free cells. This percent aggregation was then used to calculate the percent inhibition, Pi as follows Pi=100(1−Pip/Pc) (2) where Pip is the percent aggregation with inhibitory peptide and Pc is the percent aggregation in the control experiment. The IC50 values were calculated from a line fit to the percent inhibition data as a function of inhibitory peptide concentration over the range from 10 μM to 1 mM. Each condition was performed in duplicate while each experiment was performed a minimum of three times.

[2] = biological target: T2, intercellular adhesion molecule-1 (ICAM-1) (human, UniProt P05362 28-532); assay: cell-based or functional assay
[3] = biological target: T2, intercellular adhesion molecule-1 …; assay: cell-based or functional assay; remark: listed apart in the source
[4] = Table 1, class by experimental IC50, read-out: Inhibitor strength

T2 sequence (P05362 28-532): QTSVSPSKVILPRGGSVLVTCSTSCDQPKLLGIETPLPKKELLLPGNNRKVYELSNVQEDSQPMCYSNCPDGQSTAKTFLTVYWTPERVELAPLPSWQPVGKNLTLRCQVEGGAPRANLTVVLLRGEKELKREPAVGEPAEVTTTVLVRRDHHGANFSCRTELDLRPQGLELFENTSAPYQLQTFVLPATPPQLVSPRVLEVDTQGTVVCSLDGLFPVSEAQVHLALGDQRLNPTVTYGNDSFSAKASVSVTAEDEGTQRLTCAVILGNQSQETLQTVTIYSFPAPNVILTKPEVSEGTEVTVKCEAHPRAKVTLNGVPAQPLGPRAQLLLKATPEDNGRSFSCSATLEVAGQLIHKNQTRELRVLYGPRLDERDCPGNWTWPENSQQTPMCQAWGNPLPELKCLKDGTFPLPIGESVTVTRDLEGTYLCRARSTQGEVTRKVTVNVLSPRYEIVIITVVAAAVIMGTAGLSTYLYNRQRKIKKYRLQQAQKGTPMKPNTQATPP
T1 sequence (P05362 28-532): as above

| Experimental IC50 (µM), cellular aggregation blocking assay [2] [µM] | Molecule | other results |
| --- | --- | --- |
| > 1000 | CLVRMRSAC (disulfide 1-9) [Table 1 peptide 5, CLVRMRSAC (SEQ ID NO:25)] |  |
| > 1000 | CLLRMRSLC (disulfide 1-9) [Table 1 peptide 8, CLLRMRSLC (SEQ ID NO:28)] |  |
| > 1000 | CLLRMASIC (disulfide 1-9) [Table 1 peptide 14, CLLRMASIC (SEQ ID NO:34)] |  |
| 480 | CLLRMRSAC (disulfide 1-9) [Table 1 peptide 1, CLLRMRSAC (SEQ ID NO:21)] |  |
| 40 | CILKMKSAC (disulfide 1-9) [Table 1 peptide 16, CILKMKSAC (SEQ ID NO:36)] |  |
| 700 | CLLRMRSVC (disulfide 1-9) [Table 1 peptide 9, CLLRMRSVC (SEQ ID NO:29)] |  |
| 105 | CLLKMRSAC (disulfide 1-9) [Table 1 peptide 6, CLLKMRSAC (SEQ ID NO:26)] |  |
| 720 | CLIRMRSAC (disulfide 1-9) [Table 1 peptide 4, CLIRMRSAC (SEQ ID NO:24)] |  |

The remaining lines, values behind:

| Molecule | Experimental IC50 (µM), cellular aggregation blocking assay [2] [µM] | other results |
| --- | --- | --- |
| CC[C@H](C)[C@@H]1NC(=O)[C@@H](N)CSSC[C@@H](C(=O)O)NC(=O)[C@H](C)NC(=O)[C@H](CO)NC(=O)[C@H](CCCCN)NC(=O)[C@H](CCSC)NC(=O)[C@H](CCCCN)NC(=O)[C@H](CC(C)C)NC1=O [Peptide 16] (H-CILKMKSAC-OH; disulfide 1-9) |  | IC50 [1, 4]: ≤ 500 µM; IC50 ([1]; strongest inhibitor in the training set, read-out: IC50 value): 40 µM |
| CC[C@H](C)[C@@H]1NC(=O)[C@H](CC(C)C)NC(=O)[C@@H](N)CSSC[C@@H](C(=O)O)NC(=O)[C@H](C)NC(=O)[C@H](CO)NC(=O)[C@H](CCCNC(=N)N)NC(=O)[C@H](CCSC)NC(=O)[C@H](CCCNC(=N)N)NC1=O [Peptide 4] (H-CLIRMRSAC-OH; disulfide 1-9) |  | IC50 [1, 4]: 500 to 1000 µM; IC50 ([1]; Table 1, peptide 10 μM to 1 mM, inhibition of cell aggregation, read-out: Experimental IC50): 720 µM |
| CVLRMRSAC (disulfide 1-9) [Table 1 peptide 3, CVLRMRSAC (SEQ ID NO:23)] | > 1000 |  |
| CALRMRSIC (disulfide 1-9) [Table 1 peptide 11, CALRMRSIC (SEQ ID NO:31)] | > 1000 |  |
| CASKMRSAC (disulfide 1-9) [Table 7 peptide 2, CASKMRSAC (SEQ ID NO:2)] |  | Actual IC50 value (µm), cellular assays [3]: 23 µM |
| CLLRMRAIC (disulfide 1-9) [Table 1 peptide 15, CLLRMRAIC (SEQ ID NO:35)] | 710 |  |
| CLLRMRSIC (disulfide 1-9) [Table 1 peptide 10, CLLRMRSIC (SEQ ID NO:30)] | 580 |  |
| CLARMRSIC (disulfide 1-9) [Table 1 peptide 12, CLARMRSIC (SEQ ID NO:32)] | > 1000 |  |
| CILKMRSVC (disulfide 1-9) [Table 7 peptide 10, CILKMRSVC (SEQ ID NO:10)] |  | Actual IC50 value (µm), cellular assays [3]: 28 µM |
| CLLRMKSAC (disulfide 1-9) [Table 1 peptide 7, CLLRMKSAC (SEQ ID NO:27)] | 90 |  |
